Source: article PMC7265355 (2020)

Assays:
[1] = target: T1, ACE2-Ig (extracellular domain of human ACE2 linked to the Fc domain of human IgG1) (human, UniProt Q9BYF1 18-740); assay: SPR
[2] = target: T1, ACE2-Ig (extracellular domain of human …); assay: SPR; remark: listed apart in the source

T1 sequence (Q9BYF1 18-740): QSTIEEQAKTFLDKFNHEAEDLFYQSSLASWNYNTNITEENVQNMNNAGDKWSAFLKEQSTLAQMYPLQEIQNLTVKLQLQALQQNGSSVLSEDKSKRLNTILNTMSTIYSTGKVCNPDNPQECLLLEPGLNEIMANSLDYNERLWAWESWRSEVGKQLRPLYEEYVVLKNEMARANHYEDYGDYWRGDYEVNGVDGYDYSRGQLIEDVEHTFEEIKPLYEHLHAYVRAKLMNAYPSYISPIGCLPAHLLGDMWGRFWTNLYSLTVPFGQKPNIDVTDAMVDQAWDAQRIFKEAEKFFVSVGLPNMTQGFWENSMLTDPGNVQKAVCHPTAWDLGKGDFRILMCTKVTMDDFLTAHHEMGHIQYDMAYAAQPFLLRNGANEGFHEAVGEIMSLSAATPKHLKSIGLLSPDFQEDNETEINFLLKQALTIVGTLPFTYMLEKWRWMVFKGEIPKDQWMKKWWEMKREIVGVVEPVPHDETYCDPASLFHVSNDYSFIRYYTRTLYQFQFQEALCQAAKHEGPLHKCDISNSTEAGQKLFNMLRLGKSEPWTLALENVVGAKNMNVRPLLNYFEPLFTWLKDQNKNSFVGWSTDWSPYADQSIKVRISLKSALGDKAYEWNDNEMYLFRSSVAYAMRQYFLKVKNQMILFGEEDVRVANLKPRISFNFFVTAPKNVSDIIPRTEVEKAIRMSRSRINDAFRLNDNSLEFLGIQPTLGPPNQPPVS

B1: SARS-CoV S protein (natural protein)
chain: not shown
What does the source list for B1?
Kd [1]: 177 nM; koff [2]: 0.00294 s⁻¹
